Paper PMC12371199, “Identification of c‐Met on Tumor Cells as a Novel Receptor for B7‐H3 Entails Implications for Cancer Cell Stemness and Targeted Therapy” (MedComm, 2025)

Legend:
[1] = target: T1, purified recombinant extracellular domain of c‐Met (from Met1 to Thr932), c‐Met‐his (human, UniProt P08581 25-932); assay: SPR
T1 chain: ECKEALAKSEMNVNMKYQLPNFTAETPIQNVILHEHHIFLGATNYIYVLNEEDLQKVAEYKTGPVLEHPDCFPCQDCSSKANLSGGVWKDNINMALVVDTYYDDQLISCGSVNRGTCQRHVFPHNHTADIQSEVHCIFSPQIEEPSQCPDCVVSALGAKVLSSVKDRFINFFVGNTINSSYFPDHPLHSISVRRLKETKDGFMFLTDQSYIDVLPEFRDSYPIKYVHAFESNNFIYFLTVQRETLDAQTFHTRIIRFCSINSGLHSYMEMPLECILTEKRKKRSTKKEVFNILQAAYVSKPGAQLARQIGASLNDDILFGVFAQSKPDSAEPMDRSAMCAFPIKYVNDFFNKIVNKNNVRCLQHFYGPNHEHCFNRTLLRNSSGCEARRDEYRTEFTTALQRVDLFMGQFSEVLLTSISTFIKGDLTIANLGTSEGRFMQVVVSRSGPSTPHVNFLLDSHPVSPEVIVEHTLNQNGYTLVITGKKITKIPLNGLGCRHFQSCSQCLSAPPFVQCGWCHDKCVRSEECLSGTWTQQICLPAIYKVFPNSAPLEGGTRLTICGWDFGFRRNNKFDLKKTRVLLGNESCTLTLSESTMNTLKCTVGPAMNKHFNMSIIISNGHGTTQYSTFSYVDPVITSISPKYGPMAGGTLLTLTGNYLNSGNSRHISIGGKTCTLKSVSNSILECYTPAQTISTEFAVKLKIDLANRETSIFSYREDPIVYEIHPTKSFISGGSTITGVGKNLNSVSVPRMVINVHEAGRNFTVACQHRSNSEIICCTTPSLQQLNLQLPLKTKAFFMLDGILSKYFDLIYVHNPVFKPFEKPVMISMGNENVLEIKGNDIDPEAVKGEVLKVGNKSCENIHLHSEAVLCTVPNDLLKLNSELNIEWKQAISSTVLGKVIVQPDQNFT

[2] = target: T2, purified recombinant extracellular domain of c‐Met (from Met1 to Thr932), c‐Met‐his (human, UniProt P08581 25-932); assay: SPR; Biacore T200; c‐Met‐his immobilised on CM5 chip (10 mM sodium acetate pH 4.5); B7‐H3‐his as analyte in serial doubling concentrations up to 100 µM; 30 µL/min, 25°C; 1:1 model, global fit; conditions: both partners purified
T2 construct: signal peptide in the construct; c-Met (hepatocyte growth factor receptor), extracellular domain, Met1 to Thr932; The limits and supplier are told for the SPR; source: bought: Sino Biological (Beijing, China)

koff [1]: 0.000707 s⁻¹ | Kd [2]: 1660 nM
B1: purified recombinant extracellular domain of B7‐H3 (from Gly27 to Thr461), B7‐H3‐his (domain or fragment, human, UniProt Q5ZPR3 27-461, looked up)
chain: GALEVQVPEDPVVALVGTDATLCCSFSPEPGFSLAQLNLIWQLTDTKQLVHSFAEGQDQGSAYANRTALFPDLLAQGNASLRLQRVRVADEGSFTCFVSIRDFGSAAVSLQVAAPYSKPSMTLEPNKDLRPGDTVTITCSSYQGYPEAEVFWQDGQGVPLTGNVTTSQMANEQGLFDVHSILRVVLGANGTYSCLVRNPVLQQDAHSSVTITPQRSPTGAVEVQVPEDPVVALVGTDATLRCSFSPEPGFSLAQLNLIWQLTDTKQLVHSFTEGRDQGSAYANRTALFPDLLAQGNASLRLQRVRVADEGSFTCFVSIRDFGSAAVSLQVAAPYSKPSMTLEPNKDLRPGDTVTITCSSYRGYPEAEVFWQDGQGVPLTGNVTTSQMANEQGLFDVHSVLRVVLGANGTYSCLVRNPVLQQDAHGSVTITGQPMT
notes: B7-H3 (CD276), human, extracellular domain, Gly27 to Thr461; The limits and supplier are told for the SPR; also called soluble recombinant B7‐H3; source: bought: BioIntron (Taizhou, China)
